According to publication PMC9879961 (Nature Communications, 2023):
Substitutions are numbered along the chain they refer to. Names and notes keep the numbering of the source.

B1: CTRB (BRCA2 residues 3194-3418), His6-Thioredoxin-S tagged, C-terminally Flag-tagged (domain or fragment, human, UniProt P51587 3194-3418, looked up)
chain: PTKDCTSGPYTAQIIPGTGNKLLMSSPNCEIYYQSPLSLCMAKRKSVSTPVSAQMTSKSCKGEKEIDDQKNCKKRRALDFLSRLPLPPPVSPICTFVSPAAQKAFQPPRSCGTKYETPIKKKELNSPQMTPFKKFNEISLLESNSIADEELALINTQALLSGSTGEKQFISVSESTRTAPTSSEDYLRLKRRCTTSLIKEQESSQASTEECEKNKQDTITTKKYI
notes: BRCA2, human, residues 3194-3418 of the 3,418-residue protein; No tag cleavage is described; also called wild-type CTRB; source: E. coli Rosetta (pET32a), purified (Ni-NTA, Source S, anti-Flag M2, Mono-Q)
B2: CTRB-4A (BRCA2 residues 3194-3418, KKRR(3266-3269) to AAAA) (domain or fragment, human, UniProt P51587 3194-3418, looked up)
chain: B1 chain with K73A, K74A, R75A, R76A
notes: BRCA2, human, residues 3194-3418; also called 4 A mutant; source: E. coli Rosetta (pET32a), purified as the wild type
B3: CTRB-S3291A (domain or fragment, human, UniProt P51587 3194-3418, looked up)
chain: B1 chain with S98A
notes: BRCA2, human, CTRB (residues 3194-3418) with S3291A; Called a CTRB mutant purified as wild-type CTRB; source: E. coli, purified using the procedure developed for wild-type CTRB
B4: CTRB-S3291E (domain or fragment, human, UniProt P51587 3194-3418, looked up)
chain: B1 chain with S98E
notes: BRCA2, human, CTRB (residues 3194-3418) with S3291E; Called a CTRB mutant purified as wild-type CTRB; source: E. coli, purified using the procedure developed for wild-type CTRB
B5: GST-TR2 (BRCA2 residues 3265-3330) (domain or fragment, human, UniProt P51587 3265-3330, looked up)
chain: CKKRRALDFLSRLPLPPPVSPICTFVSPAAQKAFQPPRSCGTKYETPIKKKELNSPQMTPFKKFNE
notes: BRCA2, human, TR2 region, residues 3265-3330; also called BRCA2-TR2 polypeptide; source: E. coli Rosetta (pGEX-TR2), purified (glutathione-Sepharose, SP Sepharose); not shown: GST, N-terminal, kept
B6: GST-TR2 with deletion of residues 3291-3295 (domain or fragment, human, UniProt P51587 3265-3330, looked up)
chain: CKKRRALDFLSRLPLPPPVSPICTFVKAFQPPRSCGTKYETPIKKKELNSPQMTPFKKFNE
notes: BRCA2, human, TR2 region, residues 3265-3330, internally truncated; source: E. coli Rosetta (pGEX-TR2 variant), purified (glutathione-Sepharose, SP Sepharose); not shown: GST, N-terminal, kept
B7: GST-TR2 with deletion of residues 3306-3310 (domain or fragment, human, UniProt P51587 3265-3330, looked up)
chain: CKKRRALDFLSRLPLPPPVSPICTFVSPAAQKAFQPPRSCGPIKKKELNSPQMTPFKKFNE
notes: as for B6
B8: Fork substrate (Oligo-H3/H5) (mixed)
DNA 1: TTGATAAGAGGTCATTTGAATTCATGGCTTAGAGCTTAATTGCTGAATCTGGTGCTGGGATCCAACATGTTTTAAATATG
DNA 2: CATATTTAAAACATGTTGGATCCCAGCACCAGATTCAGCATACGTTACCGATCGTACGTTCGATGCTGGCTACTGCTAGC

Experiments:
RAD51 [1] = biological target: T1, RAD51 (UniProt Q06609 1-339); assay: pull-down; CTRB species held through the S-tag on S-Protein agarose; RAD51 and CTRB 4 µg each; 25 µl buffer T (25 mM Tris-HCl pH 7.5, 0.5 mM EDTA, 10% glycerol, 0.01% Igepal) with 150 mM KCl and Benzonase; on ice 30 min, resin 1 h at 4 °C; SDS-PAGE, Coomassie; settings: both partners purified
T1 construct: No tag is named; also called RAD51 recombinase; source: E. coli BLR pRARE (pET11-RAD51), purified (ammonium sulfate, Q Sepharose, hydroxyapatite, Mono-Q)
T1 sequence (looked up): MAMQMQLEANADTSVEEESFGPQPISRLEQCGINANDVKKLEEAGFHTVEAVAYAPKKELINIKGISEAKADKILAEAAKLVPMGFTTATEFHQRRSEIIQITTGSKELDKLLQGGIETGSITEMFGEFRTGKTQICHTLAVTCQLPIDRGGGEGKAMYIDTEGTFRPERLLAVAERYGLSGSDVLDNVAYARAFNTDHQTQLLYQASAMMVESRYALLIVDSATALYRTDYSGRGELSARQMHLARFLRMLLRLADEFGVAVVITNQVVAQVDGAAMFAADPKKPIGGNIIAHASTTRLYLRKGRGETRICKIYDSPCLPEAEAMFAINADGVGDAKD

RAD51 [2] = biological target: T1, RAD51; assay: pull-down; GST-tagged TR2 polypeptides captured on glutathione-Sepharose with RAD51; 10 µl buffer K (20 mM KH2PO4 pH 7.5, 0.5 mM EDTA, 10% glycerol, 0.01% Igepal) with 150 mM KCl; SDS-PAGE, Coomassie; settings: both partners purified
CTRB = biological target: T2, CTRB (Homo sapiens, UniProt P51587 3194-3418); assay: EMSA; highest affinity of the three DNAs; EMSA: 10 nM DNA, 35 mM Tris pH 7.5, 1 mM MgCl2, 1 mM DTT, 100 ug/ml BSA, 50 mM KCl, 25 C, 5 min; 8% native PAGE in TAE; settings: protein: recombinant; tags: N-term His6-thioredoxin-S (pET32a), C-term Flag; label: 5' Cy5 on H3; fork 1:2, 40 bp duplex with two 40 nt ssDNA arms
T2 sequence: B1 chain

| Binder | binding result (RAD51 [1]) | binding result (RAD51 [2]) | other results |
| --- | --- | --- | --- |
| B1 | binds |  |  |
| B2 | binds |  |  |
| B3 | binds |  |  |
| B4 | binds |  |  |
| B5 |  | binds |  |
| B6 |  | binds |  |
| B7 |  | binds |  |
| B8 |  |  | binding result (CTRB): binds |
